Source: article PMC7732191 (Science Advances, 2020)

Biological target: the molecule itself
Test: cryo-EM structure

B1: full-length human KCC2a (potassium-chloride cotransporter 2, SLC12A5) (natural protein, UniProt Q9H2X9-1 1-1139, looked up)
chain: MSRRFTVTSLPPAGPARSPDPESRRHSVADPRHLPGEDVKGDGNPKESSPFINSTDTEKGKEYDGKNMALFEEEMDTSPMVSSLLSGLANYTNLPQGSREHEEAENNEGGKKKPVQAPRMGTFMGVYLPCLQNIFGVILFLRLTWVVGIAGIMESFCMVFICCSCTMLTAISMSAIATNGVVPAGGSYYMISRSLGPEFGGAVGLCFYLGTTFAGAMYILGTIEILLAYLFPAMAIFKAEDASGEAAAMLNNMRVYGTCVLTCMATVVFVGVKYVNKFALVFLGCVILSILAIYAGVIKSAFDPPNFPICLLGNRTLSRHGFDVCAKLAWEGNETVTTRLWGLFCSSRFLNATCDEYFTRNNVTEIQGIPGAASGLIKENLWSSYLTKGVIVERSGMTSVGLADGTPIDMDHPYVFSDMTSYFTLLVGIYFPSVTGIMAGSNRSGDLRDAQKSIPTGTILAIATTSAVYISSVVLFGACIEGVVLRDKFGEAVNGNLVVGTLAWPSPWVIVIGSFFSTCGAGLQSLTGAPRLLQAISRDGIVPFLQVFGHGKANGEPTWALLLTACICEIGILIASLDEVAPILSMFFLMCYMFVNLACAVQTLLRTPNWRPRFRYYHWTLSFLGMSLCLALMFICSWYYALVAMLIAGLIYKYIEYRGAEKEWGDGIRGLSLSAARYALLRLEEGPPHTKNWRPQLLVLVRVDQDQNVVHPQLLSLTSQLKAGKGLTIVGSVLEGTFLENHPQAQRAEESIRRLMEAEKVKGFCQVVISSNLRDGVSHLIQSGGLGGLQHNTVLVGWPRNWRQKEDHQTWRNFIELVRETTAGHLALLVTKNVSMFPGNPERFSEGSIDVWWIVHDGGMLMLLPFLLRHHKVWRKCKMRIFTVAQMDDNSIQMKKDLTTFLYHLRITAEVEVVEMHESDISAYTYEKTLVMEQRSQILKQMHLTKNEREREIQSITDESRGSIRRKNPANTRLRLNVPEETAGDSEEKPEEEVQLIHDQSAPSCPSSSPSPGEEPEGEGETDPEKVHLTWTKDKSVAEKNKGPSPVSSEGIKDFFSMKPEWENLNQSNVRRMHTAVRLNEVIVKKSRDAKLVLLNMPGPPRNRNGDENYMEFLEVLTEHLDRVMLVRGGGREVITIYS
modifications: N-acetylglucosamine (glycosylation) at multiple Asn residues of the ECD
stoichiometry N: 2
